Assay results taken from the Human Domainome abundance scans (Beltran et al. 2025).
± gives the uncertainty stated by the source.

B1: LIM and senescent cell antigen-like-containing domain protein 2, residues 13 to 71; numbered along this chain, Q7Z4I7 (parent)
chain: AVCQRCQARFSPAERIVNSNGELYHEHCFVCAQCFRPFPEGLFYEFEGRKYCEHDFQML

Variants of: B1
Test: abundance fitness (aPCA) (normalised: wild type 0, dead -1); higher = more abundant; growth selection in yeast, the domain comes from the species named
Details: Homo sapiens

Abundance fitness: each site, then its substitutions
G48: W -0.838 ± 0.087, T -0.15 ± 0.061, H -0.411 ± 0.13, D -0.03 ± 0.097, V -0.775 ± 0.071, E -0.062 ± 0.059, S -0.021 ± 0.044, N 0.114 ± 0.098, I -0.789 ± 0.19, Y -0.451 ± 0.1, A -0.201 ± 0.055, K -0.067 ± 0.062, Q -0.238 ± 0.062, C -0.224 ± 0.079
D55: V -0.964 ± 0.1, R -0.747 ± 0.057, Y -0.814 ± 0.12, W -0.815 ± 0.083, Q -0.753 ± 0.12, E -0.456 ± 0.088, N -0.606 ± 0.12, I -0.921 ± 0.14, H 0.018 ± 0.088, S -0.667 ± 0.063, L -0.933 ± 0.083, G -0.636 ± 0.068, T -0.651 ± 0.084, M -1.24 ± 0.22, K -0.918 ± 0.12, P -0.839 ± 0.11, F -1.14 ± 0.23
G41: K -0.305 ± 0.17, V -0.613 ± 0.075, Y -0.532 ± 0.07, P -0.518 ± 0.13, E -0.612 ± 0.28, N 0.021 ± 0.073, W -0.253 ± 0.28, M -0.271 ± 0.15, R -0.084 ± 0.058, A -0.238 ± 0.066, C -0.205 ± 0.055, T -0.268 ± 0.08, H -0.338 ± 0.079, S -0.228 ± 0.054, L -0.394 ± 0.068, Q 0.096 ± 0.14, I -0.733 ± 0.13, F -0.481 ± 0.078
Y51: T -0.702 ± 0.14, V 0.014 ± 0.062, A -0.754 ± 0.11, K -0.276 ± 0.14, P -0.729 ± 0.14, C -0.298 ± 0.15, D -0.452 ± 0.14, H -0.743 ± 0.18, I -0.283 ± 0.098, L 0.186 ± 0.06, F -0.053 ± 0.096, E -0.604 ± 0.13, G -0.922 ± 0.14, M 0.088 ± 0.081, Q -0.785 ± 0.24, W -0.426 ± 0.14, N -0.877 ± 0.17
F38: W -0.273 ± 0.083, N -0.113 ± 0.42, Q -0.606 ± 0.096, C -0.18 ± 0.1, E -0.512 ± 0.099, I -0.55 ± 0.12, G -0.58 ± 0.098, A -0.318 ± 0.078, K -0.238 ± 0.12, D -0.522 ± 0.2, P -0.101 ± 0.078, T -0.123 ± 0.067, M -0.225 ± 0.086, R -0.571 ± 0.078, L 0.045 ± 0.061, Y -0.638 ± 0.14, H -0.784 ± 0.23
F43: V -0.132 ± 0.06, D -0.69 ± 0.2, Q 0.103 ± 0.084, T -0.014 ± 0.065, R -0.37 ± 0.07, Y 0.059 ± 0.23, E -0.522 ± 0.087, C -0.223 ± 0.13, K -0.365 ± 0.084, S -0.103 ± 0.074, L -0.161 ± 0.059, N -0.387 ± 0.25, I -0.263 ± 0.17, A -0.143 ± 0.064, H -0.204 ± 0.15, P -0.042 ± 0.069, M -0.206 ± 0.086
P39: A -0.056 ± 0.053, T -0.091 ± 0.056, M -0.143 ± 0.075, F -0.565 ± 0.11, H -0.383 ± 0.089, G -0.159 ± 0.055, R -0.107 ± 0.041, Q -0.058 ± 0.068, K -0.064 ± 0.064, S -0.124 ± 0.049, C 0.01 ± 0.089, E -0.024 ± 0.072, I -0.396 ± 0.1, V -0.017 ± 0.056, Y -0.396 ± 0.11, D 0.05 ± 0.1, W -0.206 ± 0.053, L -0.211 ± 0.047
R36: Y -0.515 ± 0.16, W -0.423 ± 0.095, V -0.399 ± 0.12
C52: H -0.486 ± 0.28, E -0.719 ± 0.11, L -0.817 ± 0.09, F -0.882 ± 0.38, V -0.93 ± 0.11, N -0.269 ± 0.27, G -0.731 ± 0.084, D -0.622 ± 0.16, Q -0.597 ± 0.14, Y -0.49 ± 0.19, A -1 ± 0.12, I -0.918 ± 0.24, M -0.673 ± 0.13, R -0.839 ± 0.11, T -0.952 ± 0.16, W -1.14 ± 0.24, S -0.798 ± 0.12, P -0.949 ± 0.17
F56: R -0.361 ± 0.21, A -0.316 ± 0.27, E -0.648 ± 0.42, L -0.091 ± 0.17, S -0.105 ± 0.22, K -0.757 ± 0.34, W -0.364 ± 0.26, T -0.114 ± 0.19
E45: V -0.061 ± 0.35, L -0.039 ± 0.37
E47: C -0.247 ± 0.1, Q -0.204 ± 0.078, S -0.364 ± 0.07, N -0.335 ± 0.1, P -0.773 ± 0.1, D -0.083 ± 0.09, F -0.585 ± 0.15, K -0.274 ± 0.07, Y -0.453 ± 0.13, G -0.062 ± 0.048, H 0.022 ± 0.11, A -0.129 ± 0.06, L -0.243 ± 0.062, T -0.434 ± 0.073, V -0.138 ± 0.057, M -0.222 ± 0.081, W -0.49 ± 0.072, R -0.154 ± 0.044
